The source of these data is doi:10.1101/2023.11.08.566319.

This assay has as its target T33-51 protein cage subunit B. Nature of the assay: native MS; SEC-purified co-expressed cage, 2 uM in 200 mM ammonium acetate pH 7.4; Q Exactive UHMR. The note with it: scale: copies of A with 12 copies of B in the cage.

Usually stoichiometry N stands for the number of molecules, sites or subunits per partner or assembly.

“T33-51 protein cage subunit A (designed binder)” returned a stoichiometry N of 11.
